The values below come from article PMC2945410.

Data set [1] has as its system O=[N+]([O-])c1ccc(OP(=O)(O)Oc2ccc([N+](=O)[O-])cc2)cc1. The experiment in a line: purified protein. Format: biochemical, Shigella flexneri. The following applies: standard assay: 50 mM HEPES pH 7.5, 2 mM MnCl2.
Data set [2] has the same test system. The experiment in a line: purified protein. The conditions noted are these: standard assay: 50 mM HEPES pH 7.5, 2 mM MnCl2. Format: biochemical, Thiobacillus denitrificans.

As usually defined, the Km is the substrate concentration at which the rate is half of its maximum. One may read the Vmax as the rate approached at saturating substrate. By kcat is commonly meant the maximal rate divided by the concentration of active sites. The kcat/Km is the second-order rate constant that governs catalysis at low substrate concentration. Consider “SFV_3559 EAL domain (YhjK) (Shigella flexneri)”, for which, in data set [1], the Km stood at 14.1 ± 4.2 mM, the maximal velocity (Vmax) was 2.1 µmol/min/mg, the kcat was found to be 8 s⁻¹ and the kcat/Km came to 600 M⁻¹ s⁻¹.
Regarding “TBD1265 EAL domain (Thiobacillus denitrificans ATCC 25259)”, in data set [2], the Km came out at 20.0 ± 1.3 mM, the Vmax is 0.1 µmol/min/mg, the catalytic constant (kcat) was 0.06 s⁻¹ and the catalytic efficiency (kcat/Km) worked out at 3 M⁻¹ s⁻¹.
